B1: NRCoV2-S2F3 VHH (VHH)
VHH: EVQLVQSGGGLVQAGGSLRLSCATSVRILSVPAMGWYRQAPGKEREMVAVITSGGSTNYADSVKGRFTISRDNAKNTVYLQMNSLKLEDTAVYQCNLRDILSQPFWGQGTQVTVSS
B2: NRCoV2-1d VHH (VHH)
VHH: EVQLVESGGGSVQPGGSLRLSCAASGSTLDYYAIGWFRQAPGKEREWVSSVSSSDGNTLYADSVKGRFTISRDNAKNTVYLQMNSLKAEDTAVYVCAADYSMRPFAVGRWHRDYEYWGQGTQVTVSS
B3: NRCoV2-18 VHH (VHH)
VHH: EVQLVESGGGLVQAGGSLRLSCVASGITISGYNMAWWRQTRGKQTERVAFINSGGSTTYSDSVKGRFTISRDNGKNTAYLQMNSLNAEDTADYFCSLHTSHDYWGQGTQVTVSS
B4: NRCoV2-18 VHH (VHH)
VHH: B3 VHH
B5: NRCoV2-20 VHH (VHH)
VHH: EVQLQQSGGGLVQPGGSLRLSCAASGRTFSNYVVGWFRQAPQAPGKDHEFVAVISGSDTETYYADSVKGRFTISRDNAKNTVYLQMNSLKPEDTAVYYCAADRGMSYYYTRATEYYYWGQGTQVTVSS
B6: NRCoV2-SR04 VHH (VHH)
VHH: QVQLVESGGGLVQAGGSLRLSCAASGRTFSSHTVGWYRQAPGKQRDLVAAISMGGNTNYADYADSVKGRFTISRDNAKNTLYLQMNSLKPEDTAVYYCNTAALVGNRLLPMATITWGQGTQVTVSS
B7: NRCoV2-S2G4 VHH (VHH)
VHH: QVQLVQSGGGLVQAGGSLTLSCAPSGSTFSGYATNWYRQAPGKQRELVATISSDGDKNYADSVKGRFTISRDNAKNTVYLQMNSLKPEDTAVYYCNKHWWTGDWWGQGTQVTVSS
B8: NRCoV2-SR13 VHH (VHH)
VHH: EVQLVESGGGLVTTGGSLRLSCATSGSRFGSKHMAWYRQAPGKQRDLVAAISSGGSTHYGSSVKGRFTISRDNAKSTVYLQMNSLNPEDTAVFYCNMGGWDYRSNTYIPGSRSDYWGQGTQVTVSS
B9: NRCoV2-SR16 VHH (VHH)
VHH: QVQLVQSAGGLVQAGGSLRLSCVVSGTTFSRYHMGWHRQAPGKQRDFVAGISTSGAVTYADSAKGRFTISRDNAKNTVYLEMNSLKLEDTALYYCNTGGWDYRSSTFIMGLNWGQGTQVTVSS
B10: NRCoV2-SR01 VHH (VHH)
VHH: EVQLVQSGGGSVQAGGSLRLSCVASGFTFDNYAIGWFRQAPGKEREGVSCISGNGGVTIYADSVKGRFTISRDNAKNLVYLQMNSLKPEDTAVYYCAATGIRSTWSVYGCSRLAGPYDYWGQGTQVTVSS
B11: NRCoV2-14 VHH (VHH)
VHH: EVQLVSSGGGLVQAGGSLRLSCEASGTTFSHYAVGWYRQAPGKQREWVASISVFGSTTYGGSVAGRFTISRDNDKNTVDLQMNSLKPEDTAVYYCHAVNADIGGDYWGQGTQVTVSS

Tests used:
[1] = target: T1, SARS-CoV-2 spike trimer S (Wuhan, SmT1) (SARS-CoV-2 Wuhan); test: SPR, antigen on chip
T1 construct: extracellular domain

[2] = target: T2, SARS-CoV-2 S1 (aa16-685) (Wuhan) (SARS-CoV-2 Wuhan, UniProt P0DTC2 16-685); test: SPR, antigen on chip
T2 construct: NRC; FLAG, 6xHis tags

[3] = target: T3, SARS-CoV-2 S2 (aa686-1208) (Wuhan) (SARS-CoV-2 Wuhan, UniProt P0DTC2 686-1208); test: SPR, antigen on chip
T3 construct: NRC; FLAG, 6xHis tags

[4] = target: SARS-CoV-2 S1-RBD fused to human Fc (S1-RBD-Fc) (SARS-CoV-2 Wuhan; human); test: SPR, antigen on chip
[5] = target: Human SARS-CoV-2_Wuhan S (SmT1) (SARS-CoV-2 (Wuhan), UniProt P0DTC2 14-1208); test: flow cytometry SVNA, VHH vs biotin-S binding to Vero E6 ACE2

Binder	Kd [1]	koff [1]	kon [1]	binding result [2]	Kd [3]	koff [3]	kon [3]	Kd [2]	koff [2]	kon [2]	binding result [3]	Kd [4]	koff [4]	kon [4]	IC50 [5]	IC99 [5]	Imax % [5]
B1	3.03 nM	0.000473 s⁻¹	156000 M⁻¹ s⁻¹	no binding	6.22 nM	0.000629 s⁻¹	101000 M⁻¹ s⁻¹										
B2	1.1 nM	0.00117 s⁻¹	1.06e+06 M⁻¹ s⁻¹					1.32 nM	0.00114 s⁻¹	867000 M⁻¹ s⁻¹	no binding	2.1 nM	0.00118 s⁻¹	562000 M⁻¹ s⁻¹			
B3	0.384 nM	0.000152 s⁻¹	395000 M⁻¹ s⁻¹					0.536 nM	0.000165 s⁻¹	308000 M⁻¹ s⁻¹	no binding	0.736 nM	0.000197 s⁻¹	268000 M⁻¹ s⁻¹			
B4															8.9 nM	0.133 µM	51%
B5	6.73 nM	0.0159 s⁻¹	2.37e+06 M⁻¹ s⁻¹					9.63 nM	0.0189 s⁻¹	1.96e+06 M⁻¹ s⁻¹	no binding	8.61 nM	0.0123 s⁻¹	1.43e+06 M⁻¹ s⁻¹			
B6	0.14 nM	0.000335 s⁻¹	2.39e+06 M⁻¹ s⁻¹					0.226 nM	0.000493 s⁻¹	2.18e+06 M⁻¹ s⁻¹	no binding						
B7	0.232 nM	0.000207 s⁻¹	893000 M⁻¹ s⁻¹	no binding	0.413 nM	0.000382 s⁻¹	925000 M⁻¹ s⁻¹										
B8	2.62 nM	0.00481 s⁻¹	1.83e+06 M⁻¹ s⁻¹					2.43 nM	0.00545 s⁻¹	2.25e+06 M⁻¹ s⁻¹	no binding						
B9	1.82 nM	0.0012 s⁻¹	657000 M⁻¹ s⁻¹					1.55 nM	0.00115 s⁻¹	739000 M⁻¹ s⁻¹	no binding						
B10	0.445 nM	0.00123 s⁻¹	2.77e+06 M⁻¹ s⁻¹					0.437 nM	0.00158 s⁻¹	3.63e+06 M⁻¹ s⁻¹	no binding						
B11															21.3 nM	17.4 µM	54%

Reference: patent US20240270826A1 (NATIONAL RESEARCH COUNCIL OF CANADA, published 2024)
